Measurements from the supplement of paper PMC9112550, “Optimization of the antimicrobial peptide Bac7 by deep mutational scanning” (BMC Biology, 2022).

test system: Escherichia coli TOP10; experiment: shrunken log2 fold change of peptide-encoding DNA abundance (4.5 h post-induction vs induction); higher = less antimicrobial activity (less host growth inhibition); details: time post-induction: 4.5 h; library: site-saturation at positions 5, 18, 19, 20
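Further: peptides expressed intracellularly from a pBAD plasmid library in pooled LB shake-flask culture, induced with 0.3% L-arabinose, DNA abundance read by NGS, three biological replicates, DESeq2 with apeglm shrinkage.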

| Sequence | shrunken log2 fold change |
| --- | --- |
| RRIRCRPPRLPRPRPRPQKYPRP | -0.698 |
| RRIRLRPPRLPRPRPRPANEPRP | 0.0458 |
| RRIRWRPPRLPRPRPRPHIHPRP | -0.359 |
| RRIRDRPPRLPRPRPRPGNRPRP | -0.0278 |
| RRIRKRPPRLPRPRPRPTCTPRP | 0.314 |
| RRIRRRPPRLPRPRPRPDAKPRP | 0.644 |
| RRIRLRPPRLPRPRPRPDHEPRP | 0.0172 |
| RRIRDRPPRLPRPRPRPFMDPRP | -0.112 |
| RRIRGRPPRLPRPRPRPSGSPRP | 0.128 |
| RRIRLRPPRLPRPRPRPLVRPRP | -0.105 |
| RRIRARPPRLPRPRPRPSPIPRP | -0.0445 |
| RRIRKRPPRLPRPRPRPNDFPRP | -0.0772 |
| RRIRGRPPRLPRPRPRPWGKPRP | -0.0896 |
| RRIRPRPPRLPRPRPRPPNQPRP | 0.282 |
| RRIRERPPRLPRPRPRPSTDPRP | -0.332 |
| RRIRIRPPRLPRPRPRPFMHPRP | -0.0575 |
| RRIRMRPPRLPRPRPRPVHPPRP | 0.127 |
| RRIRSRPPRLPRPRPRPKSDPRP | -0.082 |
| RRIRVRPPRLPRPRPRPRSNPRP | 0.125 |
| RRIRYRPPRLPRPRPRPVKVPRP | 0.0182 |
| RRIRHRPPRLPRPRPRPIECPRP | 0.0039 |
| RRIRGRPPRLPRPRPRPALFPRP | 1.23 |

| Sequence | shrunken log2 fold change |
| --- | --- |
| RRIRWRPPRLPRPRPRPFNNPRP | -0.494 |
| RRIRFRPPRLPRPRPRPAACPRP | 0.0906 |
| RRIRKRPPRLPRPRPRPYPVPRP | -0.801 |
| RRIRKRPPRLPRPRPRPDTTPRP | 0.0419 |
| RRIRLRPPRLPRPRPRPFALPRP | 0.187 |
| RRIRTRPPRLPRPRPRPSEAPRP | 0.0182 |
| RRIRSRPPRLPRPRPRPRPHPRP | 0.151 |
| RRIRWRPPRLPRPRPRPQDDPRP | 0.0379 |
| RRIRWRPPRLPRPRPRPNGMPRP | -0.0595 |
| RRIRARPPRLPRPRPRPFLPPRP | -0.379 |
| RRIRLRPPRLPRPRPRPPQKPRP | 0.131 |
| RRIRGRPPRLPRPRPRPLCKPRP | 0.529 |
| RRIRIRPPRLPRPRPRPGWTPRP | 0.11 |
| RRIRQRPPRLPRPRPRPTNYPRP | -0.248 |
| RRIRPRPPRLPRPRPRPKHFPRP | 0.328 |
| RRIRIRPPRLPRPRPRPGDNPRP | -0.317 |
| RRIRDRPPRLPRPRPRPFYKPRP | -0.421 |
| RRIRGRPPRLPRPRPRPKAKPRP | 0.017 |
| RRIRARPPRLPRPRPRPACSPRP | 0.591 |
| RRIRRRPPRLPRPRPRPTTDPRP | 0.647 |
| RRIRGRPPRLPRPRPRPWKFPRP | -0.211 |
| RRIRFRPPRLPRPRPRPAFLPRP | -0.17 |

| Sequence | shrunken log2 fold change |
| --- | --- |
| RRIRFRPPRLPRPRPRPKGLPRP | -0.146 |
| RRIRNRPPRLPRPRPRPDARPRP | 0.222 |
| RRIRERPPRLPRPRPRPDVSPRP | 0.0276 |
| RRIRNRPPRLPRPRPRPQSMPRP | -0.567 |
| RRIRLRPPRLPRPRPRPQVVPRP | -0.252 |
| RRIRHRPPRLPRPRPRPKSGPRP | -0.242 |
| RRIRERPPRLPRPRPRPAICPRP | -0.141 |
| RRIRRRPPRLPRPRPRPLLDPRP | 0.449 |
| RRIRARPPRLPRPRPRPPNMPRP | -0.0722 |
| RRIRFRPPRLPRPRPRPRELPRP | 0.263 |
| RRIRARPPRLPRPRPRPCYKPRP | -0.0942 |
| RRIRYRPPRLPRPRPRPNYPPRP | -0.79 |
| RRIRKRPPRLPRPRPRPVKNPRP | 0.00783 |
| RRIRERPPRLPRPRPRPCHFPRP | 0.161 |
| RRIRERPPRLPRPRPRPHDMPRP | -0.0911 |
| RRIRCRPPRLPRPRPRPSSPPRP | -0.461 |
| RRIRARPPRLPRPRPRPNYKPRP | -0.345 |
| RRIRDRPPRLPRPRPRPKTMPRP | -0.0184 |
| RRIRARPPRLPRPRPRPDGCPRP | 0.239 |
| RRIRPRPPRLPRPRPRPLDIPRP | -0.408 |
| RRIRCRPPRLPRPRPRPHKQPRP | -0.0354 |
| RRIRSRPPRLPRPRPRPWPHPRP | -0.0676 |

| Sequence | shrunken log2 fold change |
| --- | --- |
| RRIRHRPPRLPRPRPRPLEAPRP | -0.00262 |
| RRIRSRPPRLPRPRPRPPLGPRP | 0.399 |
| RRIRFRPPRLPRPRPRPFRWPRP | 0.178 |
| RRIRDRPPRLPRPRPRPAKYPRP | -0.315 |
| RRIRERPPRLPRPRPRPWRLPRP | -0.00145 |
| RRIRFRPPRLPRPRPRPHIWPRP | -0.57 |
| RRIRYRPPRLPRPRPRPGPEPRP | 0.0444 |
| RRIRARPPRLPRPRPRPYWEPRP | -0.312 |
| RRIRHRPPRLPRPRPRPTKSPRP | -0.0287 |
| RRIRCRPPRLPRPRPRPHVQPRP | -0.224 |
| RRIRKRPPRLPRPRPRPIRIPRP | -0.0265 |
| RRIRWRPPRLPRPRPRPKRKPRP | 0.502 |
| RRIRDRPPRLPRPRPRPRTSPRP | 0.353 |
| RRIRHRPPRLPRPRPRPHYHPRP | -0.785 |
| RRIRWRPPRLPRPRPRPSKDPRP | -0.412 |
| RRIRMRPPRLPRPRPRPPASPRP | 1.65 |
| RRIRQRPPRLPRPRPRPIHPPRP | -0.0838 |
| RRIRKRPPRLPRPRPRPHTQPRP | 0.13 |
| RRIRNRPPRLPRPRPRPDWKPRP | -0.11 |
| RRIRPRPPRLPRPRPRPPCHPRP | 0.0684 |
| RRIRIRPPRLPRPRPRPHFRPRP | -0.555 |
| RRIRPRPPRLPRPRPRPNFKPRP | -0.225 |

| Sequence | shrunken log2 fold change |
| --- | --- |
| RRIRYRPPRLPRPRPRPKLYPRP | -0.65 |
| RRIRSRPPRLPRPRPRPYVFPRP | -0.545 |
| RRIRGRPPRLPRPRPRPLGNPRP | 0.17 |
| RRIRIRPPRLPRPRPRPTILPRP | -0.248 |
| RRIRMRPPRLPRPRPRPWLTPRP | 0.158 |
| RRIRHRPPRLPRPRPRPHNGPRP | -0.362 |
| RRIRYRPPRLPRPRPRPLQWPRP | -0.0328 |
| RRIRVRPPRLPRPRPRPMCHPRP | -0.0674 |
| RRIRLRPPRLPRPRPRPPDHPRP | 0.0205 |
| RRIRKRPPRLPRPRPRPGLEPRP | 1.18 |
| RRIRWRPPRLPRPRPRPACHPRP | 0.442 |
| RRIRRRPPRLPRPRPRPSTLPRP | -0.174 |
| RRIRPRPPRLPRPRPRPAGHPRP | 0.0291 |
| RRIRRRPPRLPRPRPRPLAGPRP | 0.477 |
| RRIRYRPPRLPRPRPRPENFPRP | 0.00911 |
| RRIRMRPPRLPRPRPRPDVLPRP | -0.123 |
| RRIRMRPPRLPRPRPRPCHDPRP | -0.347 |
| RRIRNRPPRLPRPRPRPCHIPRP | -0.366 |
| RRIRVRPPRLPRPRPRPGERPRP | 0.674 |
| RRIRTRPPRLPRPRPRPTHLPRP | -0.0332 |
| RRIRVRPPRLPRPRPRPKRSPRP | 0.112 |
